Measurements from the RNAGym collection of RNA variant scans (doi:10.7554/elife.90254).

B1: OR4K15 (parent)
chain: GUUAACGGUCAUAGGCCAUGGAAACUAGGAGCACCAUUUCGCUGCCAGUGAAGAAAUGAACAAAGAAAAUCUGGGCCAGGCAGGCAUCAAAAGAAAUAGUCUUGCGCUCAACCAGAAAGUCUGUAAUCAUUUUAAGGGUA

Variants of: B1
Assay: self-cleavage, relative activity (ratio to wild type); higher = more cleavage; in vitro, sequencing; the parent is a self-cleaving ribozyme

Variant | self-cleavage
G79A U108A | 0.02
A78U A110C | 0.05
A78U A110G | 0.05
C76A A111U | 0.03
U72C G80A | 0.38
G73U A110G | 0.03
G75A G93A | 0.14
C76A U120A | 0.19
G73A U122A | 0.15
C81A A86G | 0.16
G79U A116U | 0.03
A82C | 0.07
G74A U122A | 0.18
U72C A91G | 0.05
A78G U132C | 0.12
C77U U100C | 2.13
A78G G138A | 0.2
C81A A82G | 0.13
G80A U102C | 0.42
G74A A110G | 0.02
U72C A89G | 0.24
G75C U97C | 0.12
A78C U103C | 0.14
A78U A111G | 0.02

Variant | self-cleavage
C77U U87C | 1.31
U72C A117C | 0.08
U72C A117G | 0.22
A82C A91U | 0.3
G74A A94C | 0.06
G74A A94U | 0.19
G80A A82C | 0.14
G80A A90G | 0.18
U72A U108C | 0.01
U72A U108A | 0.04
G79C A116G | 0.03
G73A U108C | 0.01
A78U U100A | 0.07
A78G U120A | 0.22
G75A U122C | 0.08
G75A U122A | 0.17
G75A | 0.11
G75C | 0.17
G75U | 0.12
A78U U108A | 0.01
A78U U108G | 0.01
U72C G138A | 0.49
G79A U139C | 0.11
G79A A140G | 0.13

Variant | self-cleavage
U72C A129U | 0.07
C76U A96C | 0.1
U72C A118G | 0.1
C81U A94G | 0.41
A78U U133A | 0.72
U72C U102A | 0.07
U72C U108A | 0.07
U72C U108C | 0.01
A78U G93U | 0.53
G73A C121G | 0.45
A82C A94G | 0.19
G73A U120C | 0.07
G73A G136U | 0.22
U72C A78C | 0.27
U72C A78G | 0.25
G75C A110G | 0.02
G74U G83A | 0.16
A78G A140U | 0.36
A78G A140G | 0.32
A78G G137U | 0.25
A78G A118G | 0.29
A78C U122C | 0.1
G75A A125G | 0.03
G79C U97A | 0.05

Variant | self-cleavage
A78G U130G | 0
A78G U130A | 0.17
A78G U130C | 0.3
A78C G106A | 0.03
G73U A95G | 0.17
C77A U100C | 0.61
C76U C105U | 0.03
G74A U87A | 0.22
A78G U122A | 0.13
G74A U108C | 0.01
C81A U132C | 0.29
C76G A96U | 0.09
A78G U124C | 0.14
C81U U103A | 0.1
G73U U108C | 0.02
A82C A90G | 0.15
U72G A114C | 2.51
U72A U133G | 0.36
A78C C109U | 0.19
A78C U108A | 0.01
U72G A78G | 0.39
A78G U87C | 0.05
A78G U87A | 0.08
A78G A90G | 0.24

Variant | self-cleavage
A78C U102C | 0.42
G73A A118G | 0.14
U72C C128A | 0.13
U72C A86C | 0.28
G74U G119A | 0.19
U72A U124A | 0.1
U72A U124G | 0.12
G74U C121A | 0.36
G80A A116G | 0.03
G75A A91G | 0.14
U72C G106A | 0.02
C81U A111U | 0.05
U72A U127A | 0.64
A78G U131C | 0.07
G79C A91G | 0.09
A78G A135G | 0.19
G75C U130C | 0.08
G79C | 0.08
G79U | 0.06
G79A | 0.14
G73A A117G | 0.15
G74A A118G | 0.14
G74A C76U | 0.11
A78U A82U | 0.15

Variant | self-cleavage
A78U A82G | 0.08
A78G U127G | 0.27
A78G U127C | 0.22
G73A A90G | 0.03
C77A A89G | 0.61
G75A A95G | 0.05
C76A U131C | 0.08
A78C A116G | 0.13
U72C C105A | 0.03
G74U A114U | 0.04
G79U U102C | 0.06
G80A A86U | 0.24
G75A C105U | 0.01
A78U A126G | 0.17
G80U A86U | 0.23
G74A U124A | 0.1
G73U A86G | 0.17
G73A A116U | 0.03
G74C A110U | 0.14
U72G A95G | 0.43
U72G A95U | 0.12
G74A A95G | 0.35
U72C A98U | 0.3
U72C A98G | 0.03

Variant | self-cleavage
A78G U102C | 0.31
C76U A78C | 0.11
A78G A94G | 0.19
G80A A135G | 0.31
G74U A118G | 0.1
A78U U102C | 1.21
U72C A134G | 0.16
G73U A92G | 0.16
A78G U103C | 0.11
C77A A96G | 1
U72G A96G | 0.07
U72C A140G | 0.34
A78U A134G | 0.31
G73U A78U | 0.15
C77U G79U | 0.13
G75C A117G | 0.15
U72G C101A | 0.1
A78U U120A | 0.18
C77U A82G | 1.26
A78C A96G | 0.27
C81U A96G | 0.43
C77U A98G | 0.88
G75A U108C | 0.03
